These results are taken from patent US20130115220A1, “METHOD FOR PREVENTION OR TREATMENT OF METABOLIC SYNDROME” (DAINIPPON SUMITOMO PHARMA CO., LTD., priority 2010, published 2013).

For the assay, the system named is 3T3-L1 preadipocytes. As to the kind of experiment: Differentiation of 3T3-L1 preadipocytes into mature adipocytes, lipid droplet formation by oil-red-O. It is filed as cell-based. The following applies: human rAIM used for AIM loading. As to the method:
To examine the function of AIM produced by macrophage that infiltrated into adipose tissue on the surrounding adipocytes, an experiment was performed to load AIM in the culture process for differentiation of 3T3-L1 preadipocytes into mature adipocytes.
As AIM, recombinant AIM protein (rAIM) of mouse was used. rAIM was prepared by culturing human-derived HEK293T cells transfected with a vector expressing mouse AIM (pCAGGS-mAIM-HA plasmid) in a serum-free medium (FreeStyle™ 293 Expression Medium; Invitrogen). rAIM was purified from the culture supernatant thereof using an anti-HA antibody column. In other Reference Examples shown below, AIM used was a similar rAIM protein. AIM was loaded by adding AIM to a culture medium at a concentration of 5 μg/ml.
In addition, differentiation of 3T3-L1 cells was induced as shown in FIG. 13 by first proliferating 3T3-L1 cells by cultivating for 4 days (day(−2)-day 2), after which cultivating in a culture medium containing insulin, dexamethasone (DEX) and isobutylmethylxanthine (IBMX) for 2 days (day 2-day 4) to start differentiation induction stimulation, and further cultivating in a culture medium containing insulin for 2 days (day 4-day 6).
After the differentiation induction stimulation period (day 2-day 6), the cells were continuously cultured in a culture medium free of such differentiation induction stimulation factors. Then, the cells on day 10 day from the start of the differentiation induction stimulation (day 12) were stained with oil-red-O, and the state of differentiation of 3T3-L1 cells into mature adipocytes was observed.

B1: human rAIM: human AIM protein labeled with HA-tag produced in HEK293T cells (protein)
chain: SPSGVRLVGGLHRCEGRVEVEQKGQWGTVCDDGWDIKDVAVLCRELGCGAASGTPSGILYEPPAEKEQKVLIQSVSCTGTEDTLAQCEQEEVYDCSHDEDAGASCENPESSFSPVPEGVRLADGPGHCKGRVEVKHQNQWYTVCQTGWSLRAAKVVCRQLGCGRAVLTQKRCNKHAYGRKPIWLSQMSCSGREATLQDCPSGPWGKNTCNHDEDTWVECEDPFDLRLVGGDNLCSGRLEVLHKGVWGSVCDDNWGEKEDQVVCKQLGCGKSLSPSFRDRKCYGPGVGRIWLDNVRCSGEEQSLEQCQHRFWGFHDCTHQEDVAVICSG
modifications: left off: small tags and cut ends
notes: human AIM protein labeled with HA-tag produced in HEK293T cells
As to B1, the “differentiation of mouse-derived 3T3-L1 cells” value is on record as “similarly suppressed”.
